First the molecules themselves.
B1: HDV Ribozyme (parent)
chain: GGCCGGCAUGGUCCCAGCCUCCUCGCUGGCGCCGGCUGGGCAACAUUCCGAGGGGACCGUCCCCUCGGUAAUGGCGAAUGGGACCCA

In the RNAGym collection of RNA variant scans (doi:10.7554/elife.80360) one finds self-cleavage data, which are given here for 32 variants.

Variants of B1 are the subject of this series. The experiment in a line: self-cleavage, relative activity (ratio to wild type); higher = more cleavage; co-transcriptional.
Regarding GGCCGGCAUGGUCCCAGCCUCCUCGCUGGCGCCGGCUGGGCAACAUUCCGAGGGGACUGUCCCCUCGGUAAUGUCGAAUGGGACCCA [C58U G74U], the self-cleavage turned out to be 0.51. The result for GGCCGGCAUGGUCCCAGCCUCCUCGCUGGCGCCGGCUGGGCAACAUUCCGAGGGGACUGUCCCCUCGGUAAUGCCGAAUGGGACCCA [C58U G74C] reads 0.227; that for GGCCGGCAUGGUCCCAGCCUCCUCGCUGGCGCCGGCUGGGCAACAUUCCGAGGGGACAGUCCCCUCGGUAAUGGGGAAUGGGACCCA [C58A C75G], 0.116. Under GGCCGGCAUGGUCCCAGCCUCCUCGCUGGCGCCGGCUGGGCAACAUUCCGAGGGGACGCUCCCCUCGGUAAUGGCGAAUGGGACCCA [C58G G59C] stands 1.03. The result for GGCCGGCAUGGUCCCAGCCUCCUCGCUGGCGCCGGCUGGGCAACAUUCCGAGGGGACGAUCCCCUCGGUAAUGGCGAAUGGGACCCA [C58G G59A] reads 1.1; that for GGCCGGCAUGGUCCCAGCCUCCUCGCUGGCGCCGGCUGGGCAACAUUCCGAGGGGACGUUCCCCUCGGUAAUGGCGAAUGGGACCCA [C58G G59U], 0.946; that for GGCCGGCAUGGUCCCAGCCUCCUCGCUGGCGCCGGCUGGGCAACAUUCCGAGGGGACAGUCCCCUGGGUAAUGGCGAAUGGGACCCA [C58A C66G], 1.25. Regarding GGCCGGCAUGGUCCCAGCCUCCUCGCUGGCGCCGGCUGGGCAACAUUCCGAGGGGACGGUCCCCUCGGUAAUGGCGAAGGGGACCCA [C58G U79G], the self-cleavage amounted to 0.776. The result for GGCCGGCAUGGUCCCAGCCUCCUCGCUGGCGCCGGCUGGGCAACAUUCCGAGGGGACAUUCCCCUCGGUAAUGGCGAAUGGGACCCA [C58A G59U] reads 0.89; that for GGCCGGCAUGGUCCCAGCCUCCUCGCUGGCGCCGGCUGGGCAACAUUCCGAGGGGACUAUCCCCUCGGUAAUGGCGAAUGGGACCCA [C58U G59A], 1.12. The result for GGCCGGCAUGGUCCCAGCCUCCUCGCUGGCGCCGGCUGGGCAACAUUCCGAGGGGACUCUCCCCUCGGUAAUGGCGAAUGGGACCCA [C58U G59C] reads 0.923; that for GGCCGGCAUGGUCCCAGCCUCCUCGCUGGCGCCGGCUGGGCAACAUUCCGAGGGGACAGUCCCCUCGGCAAUGGCGAAUGGGACCCA [C58A U69C], 1.17; that for GGCCGGCAUGGUCCCAGCCUCCUCGCUGGCGCCGGCUGGGCAACAUUCCGAGGGGACUGUCGCCUCGGUAAUGGCGAAUGGGACCCA [C58U C62G], 0.812.

For GGCCGGCAUGGUCCCAGCCUCCUCGCUGGCGCCGGCUGGGCAACAUUCCGAGGGGACUGUCCCGUCGGUAAUGGCGAAUGGGACCCA [C58U C64G], the self-cleavage is 0.895. GGCCGGCAUGGUCCCAGCCUCCUCGCUGGCGCCGGCUGGGCAACAUUCCGAGGGGACUGUCCCCUCGGUAAUGGCGAAUAGGACCCA [C58U G80A]: the self-cleavage came out at 0.372.

With GGCCGGCAUGGUCCCAGCCUCCUCGCUGGCGCCGGCUGGGCAACAUUCCGAGGGGACUGUCCCCUCGGUAAUGGCGAAUCGGACCCA [C58U G80C], the self-cleavage came to 0.203. The result for GGCCGGCAUGGUCCCAGCCUCCUCGCUGGCGCCGGCUGGGCAACAUUCCGAGGGGACAGACCCCUCGGUAAUGGCGAAUGGGACCCA [C58A U60A] reads 1.09; that for GGCCGGCAUGGUCCCAGCCUCCUCGCUGGCGCCGGCUGGGCAACAUUCCGAGGGGACAGUCCCCGCGGUAAUGGCGAAUGGGACCCA [C58A U65G], 1.05. For the variant GGCCGGCAUGGUCCCAGCCUCCUCGCUGGCGCCGGCUGGGCAACAUUCCGAGGGGACGGUCCCCUCGGUCAUGGCGAAUGGGACCCA [C58G A70C], the self-cleavage worked out at 0.712. With GGCCGGCAUGGUCCCAGCCUCCUCGCUGGCGCCGGCUGGGCAACAUUCCGAGGGGACAGUCCCCUCGGUAAUAGCGAAUGGGACCCA [C58A G73A], the self-cleavage was found to be 0.787. Turning to GGCCGGCAUGGUCCCAGCCUCCUCGCUGGCGCCGGCUGGGCAACAUUCCGAGGGGACGGUCCCCUCGGCAAUGGCGAAUGGGACCCA [C58G U69C], the self-cleavage is 1.36.

Regarding GGCCGGCAUGGUCCCAGCCUCCUCGCUGGCGCCGGCUGGGCAACAUUCCGAGGGGACGGUCCCCUCGGAAAUGGCGAAUGGGACCCA [C58G U69A], the self-cleavage turned out to be 0.911. For GGCCGGCAUGGUCCCAGCCUCCUCGCUGGCGCCGGCUGGGCAACAUUCCGAGGGGACGGUCCCCUCGGGAAUGGCGAAUGGGACCCA [C58G U69G], the self-cleavage stood at 1.17.

With GGCCGGCAUGGUCCCAGCCUCCUCGCUGGCGCCGGCUGGGCAACAUUCCGAGGGGACGGUCCCUUCGGUAAUGGCGAAUGGGACCCA [C58G C64U], the self-cleavage turned out to be 1.08.

As to GGCCGGCAUGGUCCCAGCCUCCUCGCUGGCGCCGGCUGGGCAACAUUCCGAGGGGACGGUCCCCUAGGUAAUGGCGAAUGGGACCCA [C58G C66A], the self-cleavage turned out to be 1.15. Regarding GGCCGGCAUGGUCCCAGCCUCCUCGCUGGCGCCGGCUGGGCAACAUUCCGAGGGGACGGUCCCCUGGGUAAUGGCGAAUGGGACCCA [C58G C66G], the self-cleavage turned out to be 0.95. The result for GGCCGGCAUGGUCCCAGCCUCCUCGCUGGCGCCGGCUGGGCAACAUUCCGAGGGGACAGUCCCCUCGGUAAUGGCGAAUGAGACCCA [C58A G81A] reads 0.514. The result for GGCCGGCAUGGUCCCAGCCUCCUCGCUGGCGCCGGCUGGGCAACAUUCCGAGGGGACUGUCCUCUCGGUAAUGGCGAAUGGGACCCA [C58U C63U] reads 1.04; that for GGCCGGCAUGGUCCCAGCCUCCUCGCUGGCGCCGGCUGGGCAACAUUCCGAGGGGACGGUCCCCUCGGUAAUGGCAAAUGGGACCCA [C58G G76A], 1; that for GGCCGGCAUGGUCCCAGCCUCCUCGCUGGCGCCGGCUGGGCAACAUUCCGAGGGGACGGUCCCCUCGGUAAUGGCCAAUGGGACCCA [C58G G76C], 0.914.

In the case of GGCCGGCAUGGUCCCAGCCUCCUCGCUGGCGCCGGCUGGGCAACAUUCCGAGGGGACGGUCCUCUCGGUAAUGGCGAAUGGGACCCA [C58G C63U], the self-cleavage stood at 1.04. Under GGCCGGCAUGGUCCCAGCCUCCUCGCUGGCGCCGGCUGGGCAACAUUCCGAGGGGACUGUCCCCUGGGUAAUGGCGAAUGGGACCCA [C58U C66G] stands 0.931.
